Results taken from PMC4758095.

B1: MARCO: N83Q-136Q (protein)
parent chain: MRNKKILKEDELLSETQQAAFHQIAMEPFEINVPKPKRRNGVNFSLAVVVIYLILLTAGAGLLVVQVLNLQARLRVLEMYFLNDTLAAEDSPSFSLLQSAHPGEHLAQGASRLQVLQAQLTWVRVSHEHLLQRVDNFTQNPGMFRIKGEQGAPGLQGHKGAMGMPGAPGPPGPPAEKGAKGAMGRDGATGPSGPQGPPGVKGEAGLQGPQGAPGKQGATGTPGPQGEKGSKGDGGLIGPKGETGTKGEKGDLGLPGSKGDRGMKGDAGVMGPPGAQGSKGDFGRPGPPGLAGFPGAKGDQGQPGLQGVPGPPGAVGHPGAKGEPGSAGSPGRAGLPGSPGSPGATGLKGSKGDTGLQGQQGRKGESGVPGPAGVKGEQGSPGLAGPKGAPGQAGQKGDQGVKGSSGEQGVKGEKGERGENSVSVRIVGSSNRGRAEVYYSGTWGTICDDEWQNSDAIVFCRMLGYSKGRALYKVGAGTGQIWLDNVQCRGTESTLWSCTKNSWGHHDCSHEEDAGVECSV
B2: SR-AI (scavenger receptor A type I): N143Q-N184Q (protein)
parent chain: MEQWDHFHNQQEDTDSCSESVKFDARSMTALLPPNPKNSPSLQEKLKSFKAALIALYLLVFAVLIPLIGIVAAQLLKWETKNCSVSSTNANDITQSLTGKGNDSEEEMRFQEVFMEHMSNMEKRIQHILDMEANLMDTEHFQNFSMTTDQRFNDILLQLSTLFSSVQGHGNAIDEISKSLISLNTTLLDLQLNIENLNGKIQENTFKQQEEISKLEERVYNVSAEIMAMKEEQVHLEQEIKGEVKVLNNITNDLRLKDWEHSQTLRNITLIQGPPGPPGEKGDRGPTGESGPRGFPGPIGPPGLKGDRGAIGFPGSRGLPGYAGRPGNSGPKGQKGEKGSGNTLTPFTKVRLVGGSGPHEGRVEILHSGQWGTICDDRWEVRVGQVVCRSLGYPGVQAVHKAAHFGQGTGPIWLNEVFCFGRESSIEECKIRQWGTRACSHSEDAGVTCTL
B3: SR-AI (scavenger receptor A type I): N82Q (protein)
parent chain: B2 parent chain
B4: SR-AI (scavenger receptor A type I): N143Q (protein)
parent chain: B2 parent chain
B5: SR-AI (scavenger receptor A type I): N102Q (protein)
parent chain: B2 parent chain
B6: SR-AI (scavenger receptor A type I): N184Q (protein)
parent chain: B2 parent chain
B7: SR-AI (scavenger receptor A type I): N102Q-N143Q (protein)
parent chain: B2 parent chain
B8: SR-AI (scavenger receptor A type I): N249Q (protein)
parent chain: B2 parent chain
B9: SR-AI (scavenger receptor A type I): N221Q (protein)
parent chain: B2 parent chain
B10: SR-AI (scavenger receptor A type I): N267Q (protein)
parent chain: B2 parent chain
B11: SR-AI (scavenger receptor A type I): N102Q-N184Q (protein)
parent chain: B2 parent chain

Assay: not described (stated in discussion only)
Conditions: glycan lost; control: wild type MARCO

Protein | localisation_or_trafficking
B1 | abolishes

Assay: live immunostaining; surface biotinylation pull-down
Conditions: glycan lost; control: wild type SR-AI

Protein | localisation_or_trafficking
B2 | no change
B3 | no change
B4 | no change
B5 | no change
B6 | no change
B7 | no change
B8 | no change
B9 | no change
B10 | no change

Assay: FAM-oAβ uptake, confocal fluorescence quantification, COS-7
Conditions: glycan lost; control: wild type SR-AI

Protein | other: ligand internalisation
B2 | decreases
B3 | no change
B4 | no change
B5 | no change
B6 | no change
B7 | decreases
B8 | no change
B9 | no change
B10 | no change
B11 | no change
